The target in test [1] is T1, AFP158/HLA-A*02:01 complex (human).
T1 construct: flowed as analyte in SPR
As to the kind of experiment: SPR, crude scFv captured, pMHC analyte.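 Also: Peptide-MHC complex at several concentrations passed over captured scFv, association then buffer-driven dissociation, on- and off-rates fitted from the curves and KD estimated from them.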 For orientation: SPR reads the build-up and loss of mass on a sensor chip optically.
Experimental: (§1) The experiment was carried out as follows. The crude scFv protein were captured onto the sensorchip. Different concentrations (320, 160, 40 nM) of AFP158/HLA-A*02:01 complex flowed over the sensorchip surface, and were allowed to bind the antibody fragment for 100 s followed by injection of the running buffer to allow dissociation of the complex. On-rate (kd) and off-rate (kd) were calculated based on association and dissociation curve, and were used to estimate the equilibrium dissociation constant (KD).

Test [2] has as its target T1, AFP158/HLA-A*02:01 complex. As to the kind of experiment: SPR, fold vs AS170036 VL1VH1.
Experimental: as §1
The target of test [3] is T2, AFP158/HLA-A*02:01 complex (human).
T2 construct: flowed over the chip in SPR; also called AFP158 pro
As to the kind of experiment: SPR, scFv captured, pMHC in flow.

In test [4] the target is T2, AFP158/HLA-A*02:01 complex. The experiment in a line: SPR, KD ratio to AS170036 VL1VH1.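 Also: crude scFv captured on a sensor chip, peptide–HLA complex passed over at several concentrations, association then buffer dissociation, KD derived from on- and off-rates.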
Experimental: as §1
Test [5] has as its target T2, AFP158/HLA-A*02:01 complex. As to the kind of experiment: SPR, scFv captured, pMHC in flow.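 Also: complex injected at several concentrations over crude scFv, association then running-buffer dissociation, KD estimated from kinetic on- and off-rate constants.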 This is another data set of the same source.
Experimental: as §1
Test [6] has as its target T2, AFP158/HLA-A*02:01 complex. As to the kind of experiment: SPR, KD ratio to AS170036 VL1VH1.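 Also: crude scFv captured on a sensor chip, peptide–HLA complex passed over at several concentrations, association then buffer dissociation, KD derived from on- and off-rates.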 The source holds these as a separate data set.

By Kd is commonly meant a measure of binding affinity in units of concentration. Broadly, the koff is a measure of how fast the partners let go of each other. What is called kon is a measure of how fast the partners come together.

B1: AS170036 VL1VH1-VHG56F (scFv)
scFv: QSALTQPRSVSGSPGQSVTISCAGTSSDVGSENYVSWYQQHPGKAPKLMIYQVNKRASGVPDRFSGSKSGNTASLTISGLQAEDEADYYCASYRSSDHNIVFGGGTKLTVLGGGGSGGGGSGGGGSEVQLVESGGGLVQPGGSLRLSCAASGFTFSSYAMSWVRQAPGKGLEWVSTINSGTFSPYYADSVKGRFTISRDNSKNTLYLQMNSLRAEDTAVYYCAKNFFDGSWFLGPPAMDYWGQGTLVTVSSHHHHHH
Turning to B1, in test [1], the affinity, expressed as Kd, was 98 nM; the koff came out at 0.022 s⁻¹; the kon was 230000 M⁻¹ s⁻¹. In test [2], this molecule showed an Affinity increase of 2.3 fold.

B2: AS170036 VL1VH1-VHS57M (scFv)
scFv: QSALTQPRSVSGSPGQSVTISCAGTSSDVGSENYVSWYQQHPGKAPKLMIYQVNKRASGVPDRFSGSKSGNTASLTISGLQAEDEADYYCASYRSSDHNIVFGGGTKLTVLGGGGSGGGGSGGGGSEVQLVESGGGLVQPGGSLRLSCAASGFTFSSYAMSWVRQAPGKGLEWVSTINSGTGMPYYADSVKGRFTISRDNSKNTLYLQMNSLRAEDTAVYYCAKNFFDGSWFLGPPAMDYWGQGTLVTVSSHHHHHH
In test [1], B2 displayed a Kd of 90 nM, a koff of 0.025 s⁻¹ and an on-rate (kon) of 280000 M⁻¹ s⁻¹. Also, the Affinity increase in test [2] worked out at 2.7 fold.

B3: LY93W (scFv)
scFv: QSALTQPRSVSGSPGQSVTISCAGTSSDVGSENYVSWYQQHPGKAPKLMIYQVNKRASGVPDRFSGSKSGNTASLTISGLQAEDEADYYCASWRSSDHNIVFGGGTKLTVLGGGGSGGGGSGGGGSEVQLVESGGGLVQPGGSLRLSCAASGFTFSSYAMSWVRQAPGKGLEWVSTINSGTGSPYYADSVKGRFTISRDNSKNTLYLQMNSLRAEDTAVYYCAKNFFDGSWFLGPPAMDYWGQGTLVTVSSHHHHHH
notes: AS170036 VL1VH1 scFv mutein
For B3, the Kd in test [3] and in test [5] was 240 nM throughout. In addition, the Affinity increase in test [4] and in test [6] was 1 fold each time.

B4: LY93V (scFv)
scFv: QSALTQPRSVSGSPGQSVTISCAGTSSDVGSENYVSWYQQHPGKAPKLMIYQVNKRASGVPDRFSGSKSGNTASLTISGLQAEDEADYYCASVRSSDHNIVFGGGTKLTVLGGGGSGGGGSGGGGSEVQLVESGGGLVQPGGSLRLSCAASGFTFSSYAMSWVRQAPGKGLEWVSTINSGTGSPYYADSVKGRFTISRDNSKNTLYLQMNSLRAEDTAVYYCAKNFFDGSWFLGPPAMDYWGQGTLVTVSSHHHHHH
notes: AS170036 VL1VH1 scFv mutein
As to B4, the dissociation constant Kd in test [3] and in test [5] was 450 nM each time. Further, the Affinity increase in test [4] and in test [6] was 0.5 fold throughout.

B5: AS170036 VL1VH1-VHG108M (scFv)
scFv: QSALTQPRSVSGSPGQSVTISCAGTSSDVGSENYVSWYQQHPGKAPKLMIYQVNKRASGVPDRFSGSKSGNTASLTISGLQAEDEADYYCASYRSSDHNIVFGGGTKLTVLGGGGSGGGGSGGGGSEVQLVESGGGLVQPGGSLRLSCAASGFTFSSYAMSWVRQAPGKGLEWVSTINSGTGSPYYADSVKGRFTISRDNSKNTLYLQMNSLRAEDTAVYYCAKNFFDGSWFLMPPAMDYWGQGTLVTVSSHHHHHH
In test [1], B5 came in with a Kd of 58 nM, a koff of 0.013 s⁻¹ and a kon of 220000 M⁻¹ s⁻¹. Moreover, the Affinity increase in test [2] was 4.7 fold.

B6: AS170036 VL1VH1-VHG108A (scFv)
scFv: QSALTQPRSVSGSPGQSVTISCAGTSSDVGSENYVSWYQQHPGKAPKLMIYQVNKRASGVPDRFSGSKSGNTASLTISGLQAEDEADYYCASYRSSDHNIVFGGGTKLTVLGGGGSGGGGSGGGGSEVQLVESGGGLVQPGGSLRLSCAASGFTFSSYAMSWVRQAPGKGLEWVSTINSGTGSPYYADSVKGRFTISRDNSKNTLYLQMNSLRAEDTAVYYCAKNFFDGSWFLAPPAMDYWGQGTLVTVSSHHHHHH
In the case of B6, in test [1], the Kd amounted to 42 nM, the koff stood at 0.012 s⁻¹ and the kon stood at 290000 M⁻¹ s⁻¹. The same molecule came in with an Affinity increase in test [2] of 5.5 fold.

B7: AS170036 VL1VH1-VHS57H (scFv)
scFv: QSALTQPRSVSGSPGQSVTISCAGTSSDVGSENYVSWYQQHPGKAPKLMIYQVNKRASGVPDRFSGSKSGNTASLTISGLQAEDEADYYCASYRSSDHNIVFGGGTKLTVLGGGGSGGGGSGGGGSEVQLVESGGGLVQPGGSLRLSCAASGFTFSSYAMSWVRQAPGKGLEWVSTINSGTGHPYYADSVKGRFTISRDNSKNTLYLQMNSLRAEDTAVYYCAKNFFDGSWFLGPPAMDYWGQGTLVTVSSHHHHHH
B7: in test [1], the Kd came to 35 nM, the koff came out at 0.0061 s⁻¹ and the kon amounted to 170000 M⁻¹ s⁻¹. The Affinity increase in test [2] was 6.9 fold.

B8: AS170036 VL1VH1-VHG56N (scFv)
scFv: QSALTQPRSVSGSPGQSVTISCAGTSSDVGSENYVSWYQQHPGKAPKLMIYQVNKRASGVPDRFSGSKSGNTASLTISGLQAEDEADYYCASYRSSDHNIVFGGGTKLTVLGGGGSGGGGSGGGGSEVQLVESGGGLVQPGGSLRLSCAASGFTFSSYAMSWVRQAPGKGLEWVSTINSGTNSPYYADSVKGRFTISRDNSKNTLYLQMNSLRAEDTAVYYCAKNFFDGSWFLGPPAMDYWGQGTLVTVSSHHHHHH
In test [1], B8 returned a Kd of 92 nM, a koff of 0.025 s⁻¹ and a kon of 270000 M⁻¹ s⁻¹. In test [2], this molecule registered an Affinity increase of 2.5 fold.

B9: AS170036 VL1VH1-VHG56Y (scFv)
scFv: QSALTQPRSVSGSPGQSVTISCAGTSSDVGSENYVSWYQQHPGKAPKLMIYQVNKRASGVPDRFSGSKSGNTASLTISGLQAEDEADYYCASYRSSDHNIVFGGGTKLTVLGGGGSGGGGSGGGGSEVQLVESGGGLVQPGGSLRLSCAASGFTFSSYAMSWVRQAPGKGLEWVSTINSGTYSPYYADSVKGRFTISRDNSKNTLYLQMNSLRAEDTAVYYCAKNFFDGSWFLGPPAMDYWGQGTLVTVSSHHHHHH
In test [1], B9 had a Kd of 35 nM, an off-rate constant (koff) of 0.006 s⁻¹ and a kon of 170000 M⁻¹ s⁻¹. The molecule further had an Affinity increase in test [2] of 6.6 fold.

B10: LY93Q (scFv)
scFv: QSALTQPRSVSGSPGQSVTISCAGTSSDVGSENYVSWYQQHPGKAPKLMIYQVNKRASGVPDRFSGSKSGNTASLTISGLQAEDEADYYCASQRSSDHNIVFGGGTKLTVLGGGGSGGGGSGGGGSEVQLVESGGGLVQPGGSLRLSCAASGFTFSSYAMSWVRQAPGKGLEWVSTINSGTGSPYYADSVKGRFTISRDNSKNTLYLQMNSLRAEDTAVYYCAKNFFDGSWFLGPPAMDYWGQGTLVTVSSHHHHHH
notes: AS170036 VL1VH1 scFv mutein
Take B10: the dissociation constant Kd in test [3] and in test [5] was 380 nM throughout. The Affinity increase in test [4] and in test [6] was 0.6 fold throughout.

B11: AS170036 VL1VH1-VHG108N (scFv)
scFv: QSALTQPRSVSGSPGQSVTISCAGTSSDVGSENYVSWYQQHPGKAPKLMIYQVNKRASGVPDRFSGSKSGNTASLTISGLQAEDEADYYCASYRSSDHNIVFGGGTKLTVLGGGGSGGGGSGGGGSEVQLVESGGGLVQPGGSLRLSCAASGFTFSSYAMSWVRQAPGKGLEWVSTINSGTGSPYYADSVKGRFTISRDNSKNTLYLQMNSLRAEDTAVYYCAKNFFDGSWFLNPPAMDYWGQGTLVTVSSHHHHHH
In test [1], B11 returned a Kd of 140 nM, a koff of 0.045 s⁻¹ and a kon of 330000 M⁻¹ s⁻¹. The molecule further came in with an Affinity increase in test [2] of 2 fold.

B12: AS170036 VL1VH1-VHG108S (scFv)
scFv: QSALTQPRSVSGSPGQSVTISCAGTSSDVGSENYVSWYQQHPGKAPKLMIYQVNKRASGVPDRFSGSKSGNTASLTISGLQAEDEADYYCASYRSSDHNIVFGGGTKLTVLGGGGSGGGGSGGGGSEVQLVESGGGLVQPGGSLRLSCAASGFTFSSYAMSWVRQAPGKGLEWVSTINSGTGSPYYADSVKGRFTISRDNSKNTLYLQMNSLRAEDTAVYYCAKNFFDGSWFLSPPAMDYWGQGTLVTVSSHHHHHH
As for B12, in test [1], binding was put at a Kd of 96 nM, the koff was 0.026 s⁻¹ and the on-rate (kon) is 270000 M⁻¹ s⁻¹. This molecule also came in with an Affinity increase in test [2] of 2.8 fold.

B13: AS170036 VL1VH1-VHG108D (scFv)
scFv: QSALTQPRSVSGSPGQSVTISCAGTSSDVGSENYVSWYQQHPGKAPKLMIYQVNKRASGVPDRFSGSKSGNTASLTISGLQAEDEADYYCASYRSSDHNIVFGGGTKLTVLGGGGSGGGGSGGGGSEVQLVESGGGLVQPGGSLRLSCAASGFTFSSYAMSWVRQAPGKGLEWVSTINSGTGSPYYADSVKGRFTISRDNSKNTLYLQMNSLRAEDTAVYYCAKNFFDGSWFLDPPAMDYWGQGTLVTVSSHHHHHH
In test [1], B13 gave a Kd of 42 nM, a koff of 0.015 s⁻¹ and a kon of 370000 M⁻¹ s⁻¹. Also, the Affinity increase in test [2] came to 5.5 fold.

B14: AS170036 VL1VH1-VHS57K (scFv)
scFv: QSALTQPRSVSGSPGQSVTISCAGTSSDVGSENYVSWYQQHPGKAPKLMIYQVNKRASGVPDRFSGSKSGNTASLTISGLQAEDEADYYCASYRSSDHNIVFGGGTKLTVLGGGGSGGGGSGGGGSEVQLVESGGGLVQPGGSLRLSCAASGFTFSSYAMSWVRQAPGKGLEWVSTINSGTGKPYYADSVKGRFTISRDNSKNTLYLQMNSLRAEDTAVYYCAKNFFDGSWFLGPPAMDYWGQGTLVTVSSHHHHHH
Consider B14, for which, in test [1], the Kd came to 56 nM, the koff was 0.0081 s⁻¹ and the kon came out at 150000 M⁻¹ s⁻¹. The molecule also had an Affinity increase in test [2] of 4.4 fold.

B15: AS170036 VL1VH1-VHG108E (scFv)
scFv: QSALTQPRSVSGSPGQSVTISCAGTSSDVGSENYVSWYQQHPGKAPKLMIYQVNKRASGVPDRFSGSKSGNTASLTISGLQAEDEADYYCASYRSSDHNIVFGGGTKLTVLGGGGSGGGGSGGGGSEVQLVESGGGLVQPGGSLRLSCAASGFTFSSYAMSWVRQAPGKGLEWVSTINSGTGSPYYADSVKGRFTISRDNSKNTLYLQMNSLRAEDTAVYYCAKNFFDGSWFLEPPAMDYWGQGTLVTVSSHHHHHH
For the molecule B15, in test [1], the affinity, expressed as Kd, was 56 nM; the koff is 0.02 s⁻¹; the kon was 350000 M⁻¹ s⁻¹. The molecule further had an Affinity increase in test [2] of 4.1 fold.

For the origin of these results see patent US20240279318A1 (NANJING LEGEND BIOTECH, published 2024).
